We go through 5 sequences from the supplement of paper PMC5998384.

The subject of data set [1] is HeLa Kyoto. Description: solubility change mitosis vs G1/S (difference of NP-40 vs SDS log2 ratios) (log2 ratio difference); higher = more soluble in mitosis.
Data set [2] relates to HeLa Kyoto. As to the kind of experiment: solubility in G1/S (NP-40 vs SDS abundance) (log2 ratio); higher = more soluble. The conditions noted are these: cell cycle stage: G1/S.
In data set [3] the test system is HeLa Kyoto. Description: thermal stability score vs G1/S (z-score of summed log2 fold changes over temperatures); higher = more thermally stable than in G1/S.
The test system of data set [4] is HeLa Kyoto. As to the kind of experiment: melting temperature (median over replicates), in situ; higher = more thermally stable.
[5] abbreviates: cell cycle stage: early G1 (4.5 h after nocodazole release).
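Throughout, for melting temperature (median over replicates), in situ: HeLa Kyoto cells synchronized by double thymidine or nocodazole block, proteins quantified by TMT10plex mass spectrometry, three independent biological replicates.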
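Throughout, for solubility change mitosis vs G1/S (difference of NP-40 vs SDS log2 ratios): synchronized HeLa Kyoto cells (double thymidine block for G1/S, nocodazole release for mitosis), protein amounts in NP-40 versus SDS lysates quantified by mass spectrometry, three biological replicates.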
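Throughout, for solubility in G1/S (NP-40 vs SDS abundance): HeLa Kyoto cells arrested at G1/S by double thymidine block, proteins quantified by TMT10plex mass spectrometry in mild NP-40 versus SDS extracts, three biological replicates.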
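Throughout, for thermal stability score vs G1/S (z-score of summed log2 fold changes over temperatures): synchronized HeLa Kyoto cells, proteins quantified by TMT10plex mass spectrometry, three biological replicates, mitosis taken 0.5 h after nocodazole release, G1/S directly after double thymidine block.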

As to “MATPAGLERWVQDELHSVLGLSERHVAQFLIGTAQRCTSAEEFVQRLRDTDTLDLSGPARDFALRLWNKVPRKAVVEKPARAAEREARALLEKNRSYRLLEDSEESSEETVSRAGSSLQKKRKKRKHLRKKREEEEEEEASEKGKKKTGGSKQQTEKPESEDEWERTERERLQDLEERDAFAERVRQRDKDRTRNVLERSDKKAYEEAQKRLKMAEEDRKAMVPELRKKSRREYLAKREREKLEDLEAELADEEFLFGDVELSRHERQELKYKRRVRDLAREYRAAGEQEKLEATNRYHMPKETRGQPARAVDLVEEESGAPGEEQRRWEEARLGAASLKFGARDAASQEPKYQLVLEEEETIEFVRATQLQGDEEPSAPPTSTQAQQKESIQAVRRSLPVFPFREELLAAIANHQVLIIEGETGSGKTTQIPQYLFEEGYTNKGMKIACTQPRRVAAMSVAARVAREMGVKLGNEVGYSIRFEDCTSERTVLRYMTDGMLLREFLSEPDLASYSVVMVDEAHERTLHTDILFGLIKDVARFRPELKVLVASATMDTARFSTFFDDAPVFRIPGRRFPVDIFYTKAPEADYLEACVVSVLQIHVTQPPGDILVFLTGQEEIEAACEMLQDRCRRLGSKIRELLVLPIYANLPSDMQARIFQPTPPGARKVVVATNIAETSLTIEGIIYVLDPGFCKQKSYNPRTGMESLTVTPCSKASANQRAGRAGRVAAGKCFRLYTAWAYQHELEETTVPEIQRTSLGNVVLLLKSLGIHDLMHFDFLDPPPYETLLLALEQLYALGALNHLGELTTSGRKMAELPVDPMLSKMILASEKYSCSEEILTVAAMLSVNNSIFYRPKDKVVHADNARVNFFLPGGDHLVLLNVYTQWAESGYSSQWCYENFVQFRSMRRARDVREQLEGLLERVEVGLSSCQGDYIRVRKAITAGYFYHTARLTRSGYRTVKQQQTVFIHPNSSLFEQQPRWLLYHELVLTTKEFMRQVLEIESSWLLEVAPHYYKAKELEDPHAKKMPKKIGKTREELG [DHX16]”, in the data set with HeLa Kyoto [1], the “solubility change mitosis (log2)” value stood at 0.00704. The “solubility in G1/S (log2)” value with HeLa Kyoto [2] is -0.394. Further, the thermal stability score in the data set on HeLa Kyoto [3] (setting [5]) is 1.68; in the data set with HeLa Kyoto [3] (cell cycle stage: mitosis), 2.22. Further, the melting temperature with HeLa Kyoto [4] (cell cycle stage: G1/S) turned out to be 49.9 °C; in the data set on HeLa Kyoto [4] (cell cycle stage: mitosis), 50.8 °C.

Turning to “MATPSAAFEALMNGVTSWDVPEDAVPCELLLIGEASFPVMVNDMGQVLIAASSYGRGRLVVVSHEDYLVEAQLTPFLLNAVGWLCSSPGAPIGVHPSLAPLAKILEGSGVDAKVEPEVKDSLGVYCIDAYNETMTEKLVKFMKCGGGLLIGGQAWDWANQGEDERVLFTFPGNLVTSVAGIYFTDNKGDTSFFKVSKKMPKIPVLVSCEDDLSDDREELLHGISELDISNSDCFPSQLLVHGALAFPLGLDSYHGCVIAAARYGRGRVVVTGHKVLFTVGKLGPFLLNAVRWLDGGRRGKVVVQTELRTLSGLLAVGGIDTSIEPNLTSDASVYCFEPVSEVGVKELQEFVAEGGGLFVGAQAWWWAFKNPGVSPLARFPGNLLLNPFGISITSQSLNPGPFRTPKAGIRTYHFRSTLAEFQVIMGRKRGNVEKGWLAKLGPDGAAFLQIPAEEIPAYMSVHRLLRKLLSRYRLPVATRENPVINDCCRGAMLSLATGLAHSGSDLSLLVPEIEDMYSSPYLRPSESPITVEVNCTNPGTRYCWMSTGLYIPGRQIIEVSLPEAAASADLKIQIGCHTDDLTRASKLFRGPLVINRCCLDKPTKSITCLWGGLLYIIVPQNSKLGSVPVTVKGAVHAPYYKLGETTLEEWKRRIQENPGPWGELATDNIILTVPTANLRTLENPEPLLRLWDEVMQAVARLGAEPFPLRLPQRIVADVQISVGWMHAGYPIMCHLESVQELINEKLIRTKGLWGPVHELGRNQQRQEWEFPPHTTEATCNLWCVYVHETVLGIPRSRANIALWPPVREKRVRIYLSKGPNVKNWNAWTALETYLQLQEAFGWEPFIRLFTEYRNQTNLPTENVDKMNLWVKMFSHQVQKNLAPFFEAWAWPIQKEVATSLAYLPEWKENIMKLYLLTQMPH [TCAF1]”, the “solubility change mitosis (log2)” value with HeLa Kyoto [1] is -0.185. The “solubility in G1/S (log2)” value in the data set with HeLa Kyoto [2] is -0.143. Moreover, the thermal stability score in the data set with HeLa Kyoto [3] (setting [5]) came out at 0.502; in the data set with HeLa Kyoto [3] (cell cycle stage: mitosis), 2.06. The values for the melting temperature with HeLa Kyoto [4] (cell cycle stage: G1/S) and in the data set with HeLa Kyoto [4] (cell cycle stage: mitosis) were 49.9 °C and 49.8 °C, respectively.

“MATRQRESSITSCCSTSSCDADDEGVRGTCEDASLCKRFAVSIGYWHDPYIQHFVRLSKERKAPEINRGYFARVHGVSQLIKAFLRKTECHCQIVNLGAGMDTTFWRLKDEDLLPSKYFEVDFPMIVTRKLHSIKCKPPLSSPILELHSEDTLQMDGHILDSKRYAVIGADLRDLSELEEKLKKCNMNTQLPTLLIAECVLVYMTPEQSANLLKWAANSFERAMFINYEQVNMGDRFGQIMIENLRRRQCDLAGVETCKSLESQKERLLSNGWETASAVDMMELYNRLPRAEVSRIESLEFLDEMELLEQLMRHYCLCWATKGGNELGLKEITY [LCMT1]”: the “solubility change mitosis (log2)” value in the data set with HeLa Kyoto [1] was -0.123. Further, the “solubility in G1/S (log2)” value in the data set with HeLa Kyoto [2] turned out to be 0.181. Further, the thermal stability score in the data set with HeLa Kyoto [3] (setting [5]) was found to be 0.211; with HeLa Kyoto [3] (cell cycle stage: mitosis) it was 0.493. For the same sequence, the melting temperature in the data set with HeLa Kyoto [4] (cell cycle stage: G1/S) was 52.1 °C; in the data set on HeLa Kyoto [4] (cell cycle stage: mitosis) it was 53.5 °C.

For the sequence “MATSPQKSPSVPKSPTPKSPPSRKKDDSFLGKLGGTLARRKKAKEVSELQEEGMNAINLPLSPIPFELDPEDTMLEENEVRTMVDPNSRSDPKLQELMKVLIDWINDVLVGERIIVKDLAEDLYDGQVLQKLFEKLESEKLNVAEVTQSEIAQKQKLQTVLEKINETLKLPPRSIKWNVDSVHAKSLVAILHLLVALSQYFRAPIRLPDHVSIQVVVVQKREGILQSRQIQEEITGNTEALSGRHERDAFDTLFDHAPDKLNVVKKTLITFVNKHLNKLNLEVTELETQFADGVYLVLLMGLLEGYFVPLHSFFLTPDSFEQKVLNVSFAFELMQDGGLEKPKPRPEDIVNCDLKSTLRVLYNLFTKYRNVE [PARVA]”, the “solubility change mitosis (log2)” value in the data set on HeLa Kyoto [1] is -0.0689. The “solubility in G1/S (log2)” value in the data set with HeLa Kyoto [2] turned out to be 0.479. For the same sequence, the results for the thermal stability score in the data set on HeLa Kyoto [3] (setting [5]) and with HeLa Kyoto [3] (cell cycle stage: mitosis) were 1.2 and 1.23, respectively. The values for the melting temperature in the data set with HeLa Kyoto [4] (cell cycle stage: G1/S) and in the data set on HeLa Kyoto [4] (cell cycle stage: mitosis) were 51 °C and 50.8 °C, respectively.

Take “MATSRYEPVAEIGVGAYGTVYKARDPHSGHFVALKSVRVPNGGGGGGGLPISTVREVALLRRLEAFEHPNVVRLMDVCATSRTDREIKVTLVFEHVDQDLRTYLDKAPPPGLPAETIKDLMRQFLRGLDFLHANCIVHRDLKPENILVTSGGTVKLADFGLARIYSYQMALTPVVVTLWYRAPEVLLQSTYATPVDMWSVGCIFAEMFRRKPLFCGNSEADQLGKIFDLIGLPPEDDWPRDVSLPRGAFPPRGPRPVQSVVPEMEESGAQLLLEMLTFNPHKRISAFRALQHSYLHKDEGNPE [CDK4]”: the “solubility change mitosis (log2)” value in the data set on HeLa Kyoto [1] is -0.121. Also, in the data set with HeLa Kyoto [2], the “solubility in G1/S (log2)” value worked out at 0.218. Moreover, the results for the thermal stability score in the data set on HeLa Kyoto [3] (setting [5]) and in the data set with HeLa Kyoto [3] (cell cycle stage: mitosis) were 0.0522 and -0.366, respectively. Moreover, the results for the melting temperature with HeLa Kyoto [4] (cell cycle stage: G1/S) and in the data set on HeLa Kyoto [4] (cell cycle stage: mitosis) were 52.7 °C and 52.4 °C, respectively.
